The text below walks through data of patent US20210292423A1 (published 2021).

What is called Kd is the constant that tells how readily two partners part at equilibrium. A word on the koff: it is a measure of how fast the partners let go of each other. By kon is commonly meant the second-order rate constant of association. For orientation: EC50 means the concentration needed to bring the measured effect to its halfway point.

For assay [1], the target named is human CD123 (IL3RA) on cells (human, UniProt P26951 19-378). As to the kind of experiment: cell-based or functional assay.
Sequence of human CD123 (IL3RA) on cells (P26951 19-378): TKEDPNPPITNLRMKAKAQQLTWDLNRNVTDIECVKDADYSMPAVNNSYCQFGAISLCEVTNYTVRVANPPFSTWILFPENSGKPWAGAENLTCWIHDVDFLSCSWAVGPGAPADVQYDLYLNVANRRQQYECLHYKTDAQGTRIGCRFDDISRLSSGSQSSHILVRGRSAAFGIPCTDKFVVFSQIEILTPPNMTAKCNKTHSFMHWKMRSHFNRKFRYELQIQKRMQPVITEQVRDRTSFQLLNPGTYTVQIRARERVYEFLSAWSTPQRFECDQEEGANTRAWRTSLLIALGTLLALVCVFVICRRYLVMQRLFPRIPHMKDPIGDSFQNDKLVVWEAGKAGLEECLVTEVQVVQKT
The target in assay [2] is T1, human CD3ε/δ-Fc fusion protein (soluble recombinant CD3ε/δ complex) (human, UniProt P04234 22-105).
T1 construct: also called huCD3ε/δ; huCD3; not shown: hinge, CH2, CH3 of human IgG with tag
T1 sequence (chain, as listed by the source mutant, chain 1 of 2): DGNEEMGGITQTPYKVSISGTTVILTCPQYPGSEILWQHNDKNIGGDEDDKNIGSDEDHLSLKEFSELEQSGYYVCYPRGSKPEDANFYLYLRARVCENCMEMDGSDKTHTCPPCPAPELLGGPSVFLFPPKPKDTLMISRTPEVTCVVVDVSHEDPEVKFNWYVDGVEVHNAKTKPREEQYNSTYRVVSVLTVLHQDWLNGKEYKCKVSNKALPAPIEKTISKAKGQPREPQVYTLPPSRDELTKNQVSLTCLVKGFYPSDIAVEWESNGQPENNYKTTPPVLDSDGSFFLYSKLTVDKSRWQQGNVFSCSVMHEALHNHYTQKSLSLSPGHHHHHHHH
T1 sequence (P04234 22-105, stated change not applied, chain 2 of 2): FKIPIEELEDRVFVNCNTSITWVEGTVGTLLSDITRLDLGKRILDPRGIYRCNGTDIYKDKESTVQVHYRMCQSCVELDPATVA
As to the kind of experiment: SPR Biacore, CODV-Fab on recombinant CD3ε/δ. As for the experimental part: (§1) Binding affinities of anti-CD3 binding Fabs or CODV-Fabs were measured by surface plasmon resonance (SPR) using a Biacore3000 instrument (GE Healthcare). Assay buffer was HBS-EP (BR-1001-88, GE Healthcare). Capture of CD3ε/δ-Fc fusion proteins was achieved using the human antibody capture kit (GE Healthcare). […] The CD3εδ-Fc fusions proteins were captured at 10 μl/min to approx. 70 RU to yield Rmax values of 30 RU. Binding kinetics with the anti-CD3 Fabs or CODV-Fabs was measured at 30 μl/min for 240 sec. and 600 sec. for association and dissociation phase, respectively. Twofold dilutions of Fabs from 3 to 400 nM in assay buffer were used. All Fab concentrations were run in duplicate together with duplicate buffer blanks for double referencing. Regeneration of the capture surface was performed with a 1 min injection of 3M MgCl2 solution at 30 μl/min. For data analysis the BIAevaluation software v.4.1 (GE Healthcare) was used. Data were fit globally using a 1:1 Langmuir model with mass transfer.
A general note: SPR reads the build-up and loss of mass on a sensor chip optically.

In assay [3] the target is T1, human CD3ε/δ-Fc fusion protein (soluble …). As to the kind of experiment: SPR Biacore, CODV-Fab. The method, then:
as §1

Assay [4] has the same target. In words: SPR, CD3-Fc captured, Fab 100 nM. The method, then: (§2) Binding was tested by SPR using a BIAcore3000 instrument run with HBS-EP buffer. Recombinant huCD3 proteins (ε/δ (PB01226), ε/γ (PB01225)) were captured at 10 μl/min via Fc-tag by anti-human Fc capture antibody MAB1302 (Millipore) immobilized on a CM5 sensor chip. Anti-CD3 Fabs were used as analytes at 100 nM with association and dissociation times of 240 sec and 300 sec, respectively at 30 μl/min. After each cycle the surfaces were regenerated by a 2 min pulse of 10 mM glycine buffer pH2.5.

Assay [5] addresses recombinant huCD3ε/γ protein with Fc-tag (PB01225) (human, UniProt P07766 23-126; P09693 23-116). In words: SPR, CD3-Fc captured, Fab 100 nM. The method, then: as §2
In assay [6] the target is T1, human CD3ε/δ-Fc fusion protein (soluble …). As to the kind of experiment: SPR Biacore, Fab. As for the experimental part:
as §1

Assay [7] shares this target. As to the kind of experiment: SPR Biacore, CD3εδ-Fc captured, Fab analyte. The method, then:
as §1

In assay [8] the target is T2, human CD3 (TCR complex) on primary human T cells or Jurkat cells (human, UniProt P07766 23-207).
T2 construct: on the cells it stands in the whole TCR/CD3 complex; also called Jurkat E6-1 (expressing human TCR)
In words: flow cytometry, primary human T cells. As for the experimental part:
The binding capacity of the CD3-Fabs was determined by flow cytometry. Primary human T cells were used as target cells. Therefore, peripheral blood mononuclear cells (PBMCs) were isolated from 200 ml peripheral blood of healthy donors treated with EDTA by Ficoll density centrifugation. 15 ml Histopaque (Sigma-Aldrich) was preloaded on a 50 ml Leucosep-Tube (Greiner bio-one). Blood was diluted with autoMACS Rinsing Buffer+1% BSA (Miltenyi Biotec) and loaded on the membrane of a total of ten prepared tubes. Tubes were centrifuged without brake for 10 min at 1000 xg. PBMCs were collected and washed with autoMACS Rinsing Buffer+1% BSA three times. Finally, PBMCs were resuspended in autoMACS Running Buffer (Miltenyi Biotec) for isolation of T lymphocytes by autoMACSpro technology using the Pan T Cell isolation Kit (Miltenyi Biotec) according to manufacturer's instructions. Purity of separated T cells was analyzed by MACSQuant flow cytometry using the human 7-Color Immunophenotyping Kit (Miltenyi Biotec). Isolated T cells were resuspended in Stain Buffer with FBS (BD Pharmingen) and 1E5 cells in 100 μl per well were seeded in 96-well U-bottom suspension culture plates (Greiner bio-one). Fab antibodies were diluted 1:3 in serial in PBS (Invitrogen) and 5 μl each were added to the cells at a final maximum concentration of 30000 ng/ml. The assay was incubated for 45 min at 4° C. Cells were washed twice with Stain Buffer with FBS and 1 μg secondary antibody Goat F(ab′)2 Anti-Human kappa-FITC (Beckman Coulter, #732621) per well was added in 100 μl Stain Buffer with FBS per well. The assay was incubated for 20 min at 4° C. and washed twice afterwards. Cells were resuspended in 150 μl Stain Buffer with FBS per well and were measured using the MACSQuant (Miltenyi Biotec) or LSRII (BD) flow cytometer. Further data analyses were performed using the FlowJo software (Tree Star, Inc.). Read out was percentage of cells positive for antibody binding. Cells treated only with the secondary but no primary antibody were used to set the gates. EC50 Curves were calculated by XLfit (Algorithm 205), EC50 values were calculated as inflection point of the slope (data are shown in table 6).

Assay [9] deals with T1, human CD3ε/δ-Fc fusion protein (soluble …). As to the kind of experiment: SPR Biacore, Fab. As for the experimental part: as §1
This is another data set of the same source.

Assay [10] addresses T3, human CD3δ expressed alone on HEK293F cells (human, UniProt P04234 22-171).
T3 construct: entry includes the signal peptide; also called huCD3δ
As to the kind of experiment: flow cytometry, HEK293F transfected with huCD3δ. The method, boiled down:
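HEK293F cells transfected with huCD3δ alone, harvested 1–3 days post-transfection. Cells stained with 1 μg antibody for 30 min at 4 °C, then anti-human IgG-FITC or anti-human kappa-PE secondary plus 7-AAD for 15 min at 4 °C; binding read by flow cytometry.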
(In general: In flow cytometry, cells or beads pass a laser one at a time.)

Assay [11] has as its target T4, human CD3ε and CD3δ co-expressed on HEK293F cells (human, UniProt P07766 23-207; P04234 22-171).
T4 construct: also called huCD3ε/δ (transfected cells); huCD3e + huCD3d
As to the kind of experiment: flow cytometry, transfected HEK293F. As for the experimental part: (§3) To analyze binding of antibodies to human CD3ε and human CD3δ expressed on the surface of cells, HEK293F cells were transfected with both constructs either alone or in co-transfection and signals were measured by flow cytometry. For transfection procedure FuGENE HD Transfection Reagent (Promega, #E2311) was used according to manufacturer's protocol.
(§4) Antibodies for staining were seeded at 1 μg in 50 μl per well Stain Buffer with FBS (BD Pharmingen) in 96-well U-bottom suspension culture plates (Greiner bio-one). Harvested transfected cells were resuspended in Stain Buffer with FBS and were added at 50 μl per well to the antibodies. Cells were incubated at 4° C. in the dark for 30 min and were washed twice. 0.5 μg secondary antibody Goat F(ab′)2 Anti-Human IgG-FITC (Beckman Coulter, #732598) or Goat F(ab′)2 Anti-Human kappa-PE (Southern Biotech, #206209), respectively, in combination with 0.5 μg 7-AAD per well was added in 100 μl Stain Buffer with FBS. Cells were incubated at 4° C. in the dark for 15 min and were washed twice. For measurement, cells were resuspended in 200 μl Stain Buffer with FBS. Cells were measured using the MACSQuant (Miltenyi Biotec) or LSRII (BD) flow cytometer, respectively. Further data analyses were performed using the FlowJo software (Tree Star, Inc.).

Assay [12] concerns the target T5, human CD3ε expressed alone on HEK293F cells (human, UniProt P07766 23-207).
T5 construct: also called huCD3ε
As to the kind of experiment: flow cytometry, transfected HEK293F. The method, then:
as §3, §4

Positions count from the first letter of the chain named.

T3 sequence (P04234 22-171 limits assumed, stated change not applied): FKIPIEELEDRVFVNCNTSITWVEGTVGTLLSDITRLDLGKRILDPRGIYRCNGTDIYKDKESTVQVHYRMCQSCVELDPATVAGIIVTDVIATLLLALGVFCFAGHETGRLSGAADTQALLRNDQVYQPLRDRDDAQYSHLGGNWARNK

B1: CODV-Fab 7G3x20G6 antibody-like binding protein (bispecific antibody)
light: DVVMTQTPVSLSVSLGGQVSISCRSSQSLVHNNGNTYLSWYLQKPGQSPQSLIYKVSNRFSGFSDRFSGSGSGTDFTLKISRVDPDDLGVYYCGQGTQYPFTFGSGTKLEIKGQPKAAPDFVMTQSPSSLTVTAGEKVTMSCKSSQSLLNSGNQKNYLTWYLQKPGQPPKLLIYWASTRESGVPDRFTGSGSGTDFTLTISSVQAEDLAVYYCQNDYSYPYTFGGGTKLEIKTKGPSRTVAAPSVFIFPPSDEQLKSGTASVVCLLNNFYPREAKVQWKVDNALQSGNSQESVTEQDSKDSTYSLSSTLTLSKADYEKHKVYACEVTHQGLSSPVTKSFNRGEC
heavy: EVQLQQSGPELVKPGASVKMSCKASGYTFTDYYMKWVKQSHGKSLEWIGDIIPSNGATFYNQKFKGKATLTVDRSSSTAYMHLNSLTSEDSAVYYCTRSHLLRASWFAYWGQGTLVTVSASEVQLVETGGSLVQPGKSLKLTCATSGFTFTKAWMHWVRQSPEKQLEWVAQIKDKSNSYATYYAESVKGRFTISRDDSKSTIYLQMNSLKEEDTAIYYCRGVYYALSPFDYWGQGVMVTVSSRTASTKGPSVFPLAPSSKSTSGGTAALGCLVKDYFPEPVTVSWNSGALTSGVHTFPAVLQSSGLYSLSSVVTVPSSSLGTQTYICNVNHKPSNTKVDKKVEPKSCDKTHTHHHHHH
notes: formula I and formula II chains; hinge and His-tag added C-terminally to formula II; also called 7G3 × 20G6
On to B1, for which, in [1], the “Activity EC50 [ng/ml], cytotoxic assay on THP-1 with human T cells” value (from here on “Activity EC50 [ng/ml], cytotoxic assay”) stood at 18 ng/mL. Further, in assay [2], the Kd is 26.3 nM, the off-rate constant (koff) is 0.000571 s⁻¹ and the kon worked out at 21700 M⁻¹ s⁻¹. Moreover, in assay [3], the Kd amounted to 7 nM, the koff came to 0.00051 s⁻¹ and the on-rate constant (kon) was 72000 M⁻¹ s⁻¹.

B2: CODV-Fab 7G3x4B4 antibody-like binding protein (bispecific antibody)
light: B1 light with N32D, Y41S, K44R, S51V, F63T, S68T, D84E
heavy: B1 heavy with S131R, K137R, T151S, K152N, D174A, K175R, S178N, V222T, L226S, S227K
notes: also called 7G3 × 4B4
In the case of B2, the “Activity EC50 [ng/ml], cytotoxic assay” value in assay [1] came out at 11 ng/mL. In addition, in assay [3], the Kd is 17 nM, the koff came out at 0.0044 s⁻¹ and the kon came to 270000 M⁻¹ s⁻¹.

B3: CODV-Fab 7G3x18F5 antibody-like binding protein (bispecific antibody)
light: B1 light with V3L, N32T, S51L, F60L, F63I, D84E, Q98H, S105A, I111L
heavy: EVQLQQSGPELVKPGASVKMSCKASGYTFTDYYMKWVKQSHGKSLEWIGDIIPSNGATFYNQKFKGKATLTVDRSSSTAYMHLNSLTSEDSAVYYCTRSHLLRASWFAYWGQGTLVTVSASEVQVVETGGSLVQPGKSLKLTCATSGFTFTNAWMHWVRRSPEKQLEWVAQIKDKSNNYATYYAESVKGRFTISRDDSKSSIYLQMNSLKEEDTAIYYCRYVHYRFAYALDAWGRGTSVSVSSRTASTKGPSVFPLAPSSKSTSGGTAALGCLVKDYFPEPVTVSWNSGALTSGVHTFPAVLQSSGLYSLSSVVTVPSSSLGTQTYICNVNHKPSNTKVDKKVEPKSCDKTHTHHHHHH
As to B3, the “Activity EC50 [ng/ml], cytotoxic assay” value in [1] worked out at 61 ng/mL.

B4: CODV-Fab 7G3x4E7 antibody-like binding protein (bispecific antibody)
light: B1 light with V30E, S51P, F63I, D84E, S105P, I111L
heavy: EVQLQQSGPELVKPGASVKMSCKASGYTFTDYYMKWVKQSHGKSLEWIGDIIPSNGATFYNQKFKGKATLTVDRSSSTAYMHLNSLTSEDSAVYYCTRSHLLRASWFAYWGQGTLVTVSASEVQVVETGGSLVQPGKSLKLTCATSGFTFSNAWMHWVRQSPEKQLEWVAQIKDKSNNYATYYAESLKGRFTISRDDPKRSIYLQMNSLREEDTAIYYCRYVHYGIGYAMDAWGQGTSVTVSSRTASTKGPSVFPLAPSSKSTSGGTAALGCLVKDYFPEPVTVSWNSGALTSGVHTFPAVLQSSGLYSLSSVVTVPSSSLGTQTYICNVNHKPSNTKVDKKVEPKSCDKTHTHHHHHH
notes: also called 7G3 × 4E7
Take B4: the “Activity EC50 [ng/ml], cytotoxic assay” value in assay [1] was 12 ng/mL. For the same molecule, in assay [3], the Kd was 16 nM, the koff was 0.0019 s⁻¹ and the kon is 120000 M⁻¹ s⁻¹.

B5: 4B4-D7 Fab (Fab, V domains shown)
VH: EVQLVETGGRLVQPGRSLKLTCATSGFTFSNAWMHWVRQSPEKQLEWVAQIKARSNNYATYYAESVKGRFTISRDDSKSTIYLQMNSLKEEDTAIYYCRGTYYASKPFDYWGQGVMVTVSS
VL: DVVMTQTPVSLSVSLGGQVSISCRSSQSLVHDNGNTYLSWSLQRPGQSPQVLIYKVSNRFSGTSDRFTGSGSGTDFTLKISRVEPDDLGVYYCGQGTQYPFTFGSGTKLEIKR
notes: also called BDW-4B4-D7
In the case of B5, the “RU of Fab binding at 100 nM” value in [4] came to 11 RU; in [5], 3 RU. The Kd was 27 nM in [6], 27 nM in assay [7] and 8.79 nM in [9]. For the same molecule, the koff in assay [6] was 0.0029 s⁻¹; in assay [7], 0.0029 s⁻¹; in assay [9], 0.00285 s⁻¹. Further, the values for the kon in assay [6], in [7] and in [9] were 110000 M⁻¹ s⁻¹, 110000 M⁻¹ s⁻¹ and 326000 M⁻¹ s⁻¹, respectively. For the same molecule, the EC50 in [8] turned out to be 15.3 nM. In addition, the binding result in assay [10] was “no binding (tested: <20% of binding of huCD3e + huCD3d)”. The entries for the “% antibody positive transfected cells” value in assay [11] and in [12] were 69.5% and 71.5%, respectively.
